Changes are numbered by the printed parent chain.
Legend:
[1] = ATPase assay (malachite green end-point); assay type: biochemical, S. cerevisiae; details: 1 mM ATP, 37°C, 5 min, pH 7.4, mean of all runs
Experimental: The rate of ATP hydrolysis was determined using an end-point method modified from Merrill and Hanson ([Merrill and Hanson, 2010]). Vps4 at the indicated subunit concentration was incubated with 1 mM ATP at 37°C in 20 mM HEPES/NaOH pH 7.4, 100 mM NaCl, 10 mM MgCl2, 1 mM DTT in a total volume of 10 µl. The hydrolysis reaction was stopped after 5 min by the addition of 100 µl of malachite green color reagent (14 mM ammonium molybdate, 1.3 M HCl, 1.5 mM malachite green) and 50 µl of 21% (w/v) citric acid. Absorbance at 650 nm was read using a Biotek Neo Synergy microplate reader and the amount of inorganic phosphate released by the reaction was determined using a sodium phosphate standard curve. Means and standard deviations reported in Figure 1D are from at least three independent experiments using different protein preparations with three or more technical replicates each.

Vps4^101-437 = target: T1, Vps4^101-437 (Saccharomyces cerevisiae, UniProt P52917, L151D); assay type: binding, S. cerevisiae; details: global fit of replicate titrations over [Vps4 monomer], uM, m1 = 1; L151D mutant; Std. Error 0.218; 95% CI (profile likelihood) 4.01 to 4.887; read-out: Kd (fit to normalized anisotropy data, best-fit value)
T1 construct: 6xHis (TEV-cleavable) (N, cleaved yes); made in house; host or cells: E. coli BL21(DE3)RIL
T1 sequence (P52917 101-437 L151D): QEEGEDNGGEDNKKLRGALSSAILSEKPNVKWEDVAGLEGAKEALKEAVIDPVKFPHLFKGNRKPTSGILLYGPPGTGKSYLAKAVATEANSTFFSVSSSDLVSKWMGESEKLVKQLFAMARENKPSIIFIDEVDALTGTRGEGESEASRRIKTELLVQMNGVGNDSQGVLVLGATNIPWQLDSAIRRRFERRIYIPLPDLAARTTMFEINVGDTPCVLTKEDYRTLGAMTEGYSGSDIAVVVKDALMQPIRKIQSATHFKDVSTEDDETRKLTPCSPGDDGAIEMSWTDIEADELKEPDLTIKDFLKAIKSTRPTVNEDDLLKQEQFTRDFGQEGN
Experimental: Fluorescence polarization assay for ESCRT-III peptide binding
When equilibrium was reached, parallel and perpendicular fluorescence intensities were measured on a Biotek Synergy Neo HTS microplate reader using an excitation wavelength of 485 nm and an emission wavelength of 528 nm.

B1: Vps4 full-length: yeast AAA ATPase Vps4, full-length (pET151-Vps4) (protein)
chain 1: MSTGDFLTKGIELVQKAIDLDTATQYEEAYTAYYNGLDYLMLALKYEKNPKSKDLIRAKFTEYLNRAEQLKKHLESEEANAAKKSPSAGSGSNGGNKKISQEEGEDNGGEDNKKLRGALSSAILSEKPNVKWEDVAGLEGAKEALKEAVILPVKFPHLFKGNRKPTSGILLYGPPGTGKSYLAKAVATEANSTFFSVSSSDLVSKWMGESEKLVKQLFAMARENKPSIIFIDEVDALTGTRGEGESEASRRIKTELLVQMNGVGNDSQGVLVLGATNIPWQLDSAIRRRFERRIYIPLPDLAARTTMFEINVGDTPCVLTKEDYRTLGAMTEGYSGSDIAVVVKDALMQPIRKIQSATHFKDVSTEDDETRKLTPCSPGDDGAIEMSWTDIEADELKEPDLTIKDFLKAIKSTRPTVNEDDLLKQEQFTRDFGQEGN
chain 2: MASNAARVVATAKDFDKVGLGIIGYYLQLYAVELILSEEDRSQEMTALATELLDTIEAFKKEIGGESEAEDSDKSLHVMNTLIHDQEKAKIYMLNFTMSLYNEKLKQLKDGPWDVMLKRSLWCCIDLFSCILHLWKENISETSTNSLQKRIKYCKIYLSKLAKGEIGSSDEKTLDYADFADDSEEIKDEDVDHQTSDLENNNNDKVEGLAPKDQTTSYEPVDEVPEFIDDADSVNEEEQTVDKNEDAITKDEQQVVKKEVDLTRPSAPSEPAAAEHKSYTKDELTKIMDRASKIEQIQKLAKYAISALNYEDLPTAKDELTKALDLLNSI
modifications: left off: 6xHis, N-terminal, cleaved | 6xHis, N-terminal, cleaved
- ATPase activity, average ([1]; 0.05 μM Vps4 subunits): 19.8582 ATP/min/Vps4 hexamer
- ATPase activity, average ([1]; 1 μM Vps4 subunits): 701.731 ATP/min/Vps4 hexamer

B2: Vps4^81-437: Vps4 construct residues 81-437 (pET151-Vps4(81-437)) (protein, UniProt P52917 81-437, looked up, fragment)
chain: AAKKSPSAGSGSNGGNKKISQEEGEDNGGEDNKKLRGALSSAILSEKPNVKWEDVAGLEGAKEALKEAVILPVKFPHLFKGNRKPTSGILLYGPPGTGKSYLAKAVATEANSTFFSVSSSDLVSKWMGESEKLVKQLFAMARENKPSIIFIDEVDALTGTRGEGESEASRRIKTELLVQMNGVGNDSQGVLVLGATNIPWQLDSAIRRRFERRIYIPLPDLAARTTMFEINVGDTPCVLTKEDYRTLGAMTEGYSGSDIAVVVKDALMQPIRKIQSATHFKDVSTEDDETRKLTPCSPGDDGAIEMSWTDIEADELKEPDLTIKDFLKAIKSTRPTVNEDDLLKQEQFTRDFGQEGN
- ATPase activity, average ([1]; 0.05 μM Vps4 subunits): -6.194 ATP/min/Vps4 hexamer
- ATPase activity, average ([1]; 1 μM Vps4 subunits): 456.338 ATP/min/Vps4 hexamer

B3: Vps4^101-437: yeast Vps4 construct (residues 101–437) spanning the AAA ATPase cassette (protein, UniProt P52917 101-437, looked up, fragment)
chain: QEEGEDNGGEDNKKLRGALSSAILSEKPNVKWEDVAGLEGAKEALKEAVILPVKFPHLFKGNRKPTSGILLYGPPGTGKSYLAKAVATEANSTFFSVSSSDLVSKWMGESEKLVKQLFAMARENKPSIIFIDEVDALTGTRGEGESEASRRIKTELLVQMNGVGNDSQGVLVLGATNIPWQLDSAIRRRFERRIYIPLPDLAARTTMFEINVGDTPCVLTKEDYRTLGAMTEGYSGSDIAVVVKDALMQPIRKIQSATHFKDVSTEDDETRKLTPCSPGDDGAIEMSWTDIEADELKEPDLTIKDFLKAIKSTRPTVNEDDLLKQEQFTRDFGQEGN
- ATPase activity, average ([1]; 0.05 μM Vps4 subunits): -26.1936 ATP/min/Vps4 hexamer
- ATPase activity, average ([1]; 1 μM Vps4 subunits): 418.838 ATP/min/Vps4 hexamer

B4: Vps4(101-437) L151D (protein)
chain: B3 chain with L51D
modifications: left off: 6xHis, N-terminal, cleaved
- Kd (Vps4^101-437): 4.43 µM

Source: publication PMC5413351, “Structural basis of protein translocation by the Vps4-Vta1 AAA ATPase” (eLife, 2017)
